Three molecules from US20110086767A1, “MUTANTS OF GLYCOSIDE HYDROLASES AND USES THEREOF FOR SYNTHESIZING COMPLEX OLIGOSACCHARIDES AND DISACCHARIDE INTERMEDIATES” (Institut Pasteur, priority 2008, published 2011) can be followed below.

Holding throughout (type): biochemical
A short description of data set [1]: Kinetic parameters towards α-D-GlcpNAc-OAll acceptor. As to conditions: 250 mM for both sucrose and α-D-GlcpNAc-OAll. How it is done: Enzyme assays were carried out in a total volume of 2 mL containing pure enzyme (0.037 mg, 0.076 mg and 0.046 mg when using A289P-F290C, A289P-F2901 and A289P-F290L, respectively).
The kcat/Km (α-D-GlcpNAc-OAll) value was calculated from the initial rate of formation of desired disaccharide (α-D-Glcp-(1→4)-α-D-GlcpNAc-OAll), corresponding to the initial rate of α-D-GlcpNAc-OAll consumed. As saturation was not achieved with the mutants, efficiency was calculated by linear regression analysis of the velocity versus substrate concentration plot.

The nature of data set [2]: Kinetic parameters towards sucrose donor. The conditions noted are these: for V250mM (initial rate of sucrose consumption): 250 mM sucrose; for behaviour (at high concentration): sucrose donor alone. On the procedure: Enzyme assays were carried out in a total volume of 2 mL containing pure enzyme (0.073 mg, 0.153 mg and 0.092 mg when using A289P-F290C, A289P-F2901 and A289P-F290L, respectively).
Kinetic studies of AS variants were performed in the presence of sucrose (0-500 mM). At regular time intervals (2-5 min), aliquots (200 μL) were removed, heated (95° C., 2 min) and centrifuged (18000 g, 5 min) All the samples were filtered on a 0.22 μm membrane and analyzed using HPLC material previously described. The initial rate of sucrose consumed, corresponding to the initial rate of fructose released, was expressed in mole of fructose released per minute and per gram of enzyme. The kinetic parameters kcat and Km were calculated using Eadie-Hofstee plot.

The nature of data set [3]: HPLC screening of double-mutant libraries for variants able to glucosylate D-GlcpNAc. The conditions noted are these: α-D-Glcp-(1→4)-α-D-GlcpNAc (ED) from sucrose and D-GlcpNAc, microplate format. On the procedure: The protocol was established to enable the rapid identification of clones for which D-GlcpNAc glucosylation was improved. To obtain higher amounts of enzymes and facilitate detection of glucosylated compounds upon HPLC screening, mutants were produced in 96-DeepWell Format plates. Storage microplates containing monomutants were thawed and replicated to inoculate a starter culture in 96-well microplates containing, in each well, 150 μL LB medium supplemented with ampicillin (100 μg/mL). After growth for 24 h at 30° C. under agitation (200 rpm), plates were duplicated into 96-Deep Well plates containing, in each well, 1.1 mL LB medium supplemented with ampicillin (100 μg/mL) and IPTG (1 mM) to induce GST-AS expression. Cultures were then grown for 24 h at 30° C. under agitation (200 rpm). Plates were centrifuged (20 min, 3000 g, 4° C.) and the supernatant was removed. The cell pellet was resuspended in 200 μL of lysozyme (0.5 mg/mL), followed by freezing at −80° C. for 8 to 12 h. After thawing at room temperature, 100 μL of sucrose and 100 μL of acceptor (each at a final concentration of 73 mM) were added to each well. Enzymatic reaction was incubated at 30° C. during 24 h under agitation. The DeepWell plates were then centrifuged (20 min, 3000 g, 4° C.) and 300 μL of the supernatant was transferred to a filter micro-plate (PVDF 0.2 μm) to be clarified. Supernatant filtration was carried out by centrifugation of the filter micro-plate (5 min, 2000 g, 4° C.) into a novel microplate for screening.
The method for the expression of the mutant libraries is described in Example 1-1.
Acceptor reaction products were analyzed by HPLC analysis using a C18-AQ column (Bischoff C18, 125×4 mm, 3 μm) kept at room temperature and eluted with 0.6 mL/min of ultra-pure water to detect α-D-Glcp-(1→4)-α-D-GlcpNAc formation (analysis time: 7 min). To evaluate the efficiency of the glucosylation reaction, it was carried out complementary HPLC analyses with a Biorad HPX-87K Carbohydrate Analysis column (maintained at 65° C., and eluted at a flow rate of 0.6 mL/min with ultra-pure water). By this way, it was possible to measure sucrose consumption by RI detection and concomitant α-D-Glcp-(1-4)-α-D-GlcpNAc formation by UV220 nm and determine mutant ability to synthesize the desired disaccharide α-D-Glcp-(1→4)-α-D-GlcpNAc (i.e., % Glucosyl units transferred onto acceptor derivatives=[Glucosyl units transferred onto acceptor derivatives]/[Glucosyl units transferred from initial sucrose]×100)
All clones producing sucrose-utilizing variants were then picked and cultured in 96-well microplates. Following cell lysis, the acceptor reaction in the presence of D-GlcpNAc was then carried out in microplate format. HLPC analysis time for each clone was reduced to 7 min for detection of α-D-Glcp-(1→4)-α-D-GlcpNAc. When disaccharide formation was detected, complementary analyses were performed to determine sucrose consumption and disaccharide formation with more accuracy in order to calculate the glucosylation yield.

B1: A289P-F290C: double mutant A289P, F290C of N. polysaccharea amylosucrase (protein)
chain: SPNSQYLKTRILDIYTPEQRAGIEKSEDWRQFSRRMDTHFPKLMNELDSVYGNNEALLPMLEMLLAQAWQSYSQRNSSLKDIDIARENNPDWILSNKQVGGVCYVDLFAGDLKGLKDKIPYFQELGLTYLHLMPLFKCPEGKSDGGYAVSSYRDVNPALGTIGDLREVIAALHEAGISAVVDFIFNHTSNEHEWAQRCAAGDPLFDNFYYIFPDRRMPDQYDRTLREIFPDQHPGGFSQLEDGRWVWTTFNSFQWDLNYSNPWVFRAMAGEMLFLANLGVDILRMDAVPCIWKQMGTSCENLPQAHALIRAFNAVMRIAAPAVFFKSEAIVHPDQVVQYIGQDECQIGYNPLQMALLWNTLATREVNLLHQALTYRHNLPEHTAWVNYVRSHDDIGWTFADEDAAYLGISGYDHRQFLNRFFVNRFDGSFARGVPFQYNPSTGDCRVSGTAAALVGLAQDDPHAVDRIKLLYSIALSTGGLPLIYLGDEVGTLNDDDWSQDSNKSDDSRWAHRPRYNEALYAQRNDPSTAAGQIYQDLRHMIAVRQSNPRFDGGRLVTFNTNNKHIIGYIRNNALLAFGNFSEYPQTVTAHTLQAMPFKAHDLIGGKTVSLNQDLTLQPYQVMWLEIA
With B1, in data set [1], the “V250mM (initial rate of acceptor consumption)” value was 50 000 μmol/min/g. In data set [2], the “V250mM (initial rate of sucrose consumption)” value amounted to 2186 µmol/min/g and the “behaviour (at high concentration)” value is recorded as “saturation”. Further, the “Glusosylation Yield to synthesize ED” value in data set [3] was 100%.

B2: A289P-F290L: double mutant A289P, F290L of N. polysaccharea amylosucrase (protein)
chain: SPNSQYLKTRILDIYTPEQRAGIEKSEDWRQFSRRMDTHFPKLMNELDSVYGNNEALLPMLEMLLAQAWQSYSQRNSSLKDIDIARENNPDWILSNKQVGGVCYVDLFAGDLKGLKDKIPYFQELGLTYLHLMPLFKCPEGKSDGGYAVSSYRDVNPALGTIGDLREVIAALHEAGISAVVDFIFNHTSNEHEWAQRCAAGDPLFDNFYYIFPDRRMPDQYDRTLREIFPDQHPGGFSQLEDGRWVWTTFNSFQWDLNYSNPWVFRAMAGEMLFLANLGVDILRMDAVPLIWKQMGTSCENLPQAHALIRAFNAVMRIAAPAVFFKSEAIVHPDQVVQYIGQDECQIGYNPLQMALLWNTLATREVNLLHQALTYRHNLPEHTAWVNYVRSHDDIGWTFADEDAAYLGISGYDHRQFLNRFFVNRFDGSFARGVPFQYNPSTGDCRVSGTAAALVGLAQDDPHAVDRIKLLYSIALSTGGLPLIYLGDEVGTLNDDDWSQDSNKSDDSRWAHRPRYNEALYAQRNDPSTAAGQIYQDLRHMIAVRQSNPRFDGGRLVTFNTNNKHIIGYIRNNALLAFGNFSEYPQTVTAHTLQAMPFKAHDLIGGKTVSLNQDLTLQPYQVMWLEIA
For B2, the “V250mM (initial rate of acceptor consumption)” value in data set [1] was 67 300 μmol/min/g. For the same molecule, in data set [2], the “V250mM (initial rate of sucrose consumption)” value is 1717 µmol/min/g and the “behaviour (at high concentration)” value is “saturation”. For the same molecule, the “Glusosylation Yield to synthesize ED” value in data set [3] amounted to 100%.

B3: A289P-F290I: double mutant A289P, F290I of N. polysaccharea amylosucrase (protein)
chain: SPNSQYLKTRILDIYTPEQRAGIEKSEDWRQFSRRMDTHFPKLMNELDSVYGNNEALLPMLEMLLAQAWQSYSQRNSSLKDIDIARENNPDWILSNKQVGGVCYVDLFAGDLKGLKDKIPYFQELGLTYLHLMPLFKCPEGKSDGGYAVSSYRDVNPALGTIGDLREVIAALHEAGISAVVDFIFNHTSNEHEWAQRCAAGDPLFDNFYYIFPDRRMPDQYDRTLREIFPDQHPGGFSQLEDGRWVWTTFNSFQWDLNYSNPWVFRAMAGEMLFLANLGVDILRMDAVPIIWKQMGTSCENLPQAHALIRAFNAVMRIAAPAVFFKSEAIVHPDQVVQYIGQDECQIGYNPLQMALLWNTLATREVNLLHQALTYRHNLPEHTAWVNYVRSHDDIGWTFADEDAAYLGISGYDHRQFLNRFFVNRFDGSFARGVPFQYNPSTGDCRVSGTAAALVGLAQDDPHAVDRIKLLYSIALSTGGLPLIYLGDEVGTLNDDDWSQDSNKSDDSRWAHRPRYNEALYAQRNDPSTAAGQIYQDLRHMIAVRQSNPRFDGGRLVTFNTNNKHIIGYIRNNALLAFGNFSEYPQTVTAHTLQAMPFKAHDLIGGKTVSLNQDLTLQPYQVMWLEIA
On to B3, for which the “V250mM (initial rate of acceptor consumption)” value in data set [1] is given as 51 400 μmol/min/g. In data set [2], the “V250mM (initial rate of sucrose consumption)” value came to 946 µmol/min/g and the “behaviour (at high concentration)” value is “saturation”. Moreover, the “Glusosylation Yield to synthesize ED” value in data set [3] came out at 100%.
